Measured values: publication PMC3031671
pKd: −log10 of the molar value.

Target: Fibronectin (FN) purified from human plasma (human)
Assay: ELISA

pKd | Substance
7.70 | Full-length MMP-2^E404A (catalytically inactive, ligand-binding matrix metalloproteinase-2) (from UniProt P08253 30-660) (enzyme)
7.00 | Isolated recombinant hemopexin-like carboxyl-terminal domain of MMP-2 (PEX) (from UniProt P08253 446-660) (domain or fragment)
